Assay results: the DeepSol protein solubility set

Assay: soluble on expression in E. coli; label from the status in PepcDB or PDB records

Sequence	soluble on expression in E. coli
MGSDKIHHHHHHMRSIKNITLGLATVGVMSLSGCAGDYLDTIPSTSVSETTINTSLDNLYIALNGIHKEMVSQESGYQCLGGEPGFMMSRDAEADDMNWQTNTWMKAAYLGWQCNMNETNGYNYKFWQIYYQWILNANKILAGLEEVEITSQELFDQIKGEALCIRAWAHFNLVQLYAKRYEAGKDNTQDGIPYREKAVAEEQARNSVEDVYAKINNDLDEACILLSGIKVNDVNHYSEMVAWGLKARVALAMQDYNNAAVYAGKSVSLAEAGGHRLMTGSQLNCGFANITTDTKEAMYAAMTPDDKTVYFYSYYAYMSWNFNSSAIRQGVKCINVDAYETMSETDLRRAWWDPTGEASVPSSSYAKNAYQNRKFTARSTADAVGDVAFMRLAEMYLTQAEALARAGKDSEAQAVFTKFQITRDPSYVSKGNIGDALAEEIMNSRRVELWGEGFRFL	not soluble
MAPPTTIRTRDQALAPLATLDSQTNCRLKELVQWECQFKGAEYVCSPFKRLFEHCIAPDKSATNYEVTDTYTNS	not soluble
GSHMEDSTTNITKKQKWTVEESEWVKAGVQKYGEGNWAAISKNYPFVNRTAVMIKDRWRTMKRLGMN	soluble
RGETIKGQFAVAEVILNRVQSERFPNTPCGVIRQGTGRKYQCQFTYTCDGRKEVIAEKQAYERVAKVARLAMDGAAESLTDGATYYHTTAVRPSWARRFTQTTKIGVHLFYRQGQRTASN	not soluble
MGHHHHHHSHPPEKHLGIYSVLPNHKADAVLSMPSSVTSGLHVQPALAVSMDFSTYGGLLPQGFIQRELFSKLGELAVGMKSESRTIGEQCSVCGVELPDNEAVEQHRKLHSGMKTYGCELCGKRFLDSLRLRMHLLAHSAGAKAFVCDQCGAQFSKEDALETHRQTHTGTD	soluble
MPSIDIDEDTSVETTTMTETPTLDLNAKVEIINFINTFDVKGNCYLYHEGEEKLVSTLLRPDDRKRISLMKELEEARTIRQLHKTRLFKDHPFLKKQKRIILLPYSSISKSHMQTSHYSEREINRTKIINTFWKSKLELHYDAAEASILVCSFLAQNIDRNTHGLGISQSKIAIVLGMSLRRVSDTLNRLEQLGYVRRYTEKAKRGKLSLGTFIQVTENFSSQFLPPKKIVGESEEKQKQGSEHQPQDPPEKHYFQFLQSLNDLRLELKNFIVNSEEPIPPVVLQQIFKVL	not soluble
ANVEIYTKETCPYCHRAKALLSSKGVSFQELPIDGNAAKREEMIKRSGRTTVPQIFIDAQHIGGYDDLYALDARGGLDPLLK	soluble
MAHHHHHHMDSLYFIGKAQFHQLATHISLYHEDMSDGYKHLSTDAVMAVGLKPHKFTYWNVPMMSGYLGKTVPLDIHGGYVMIDEEKVMPMATSYGMLRYALLTSAVRAKEGGRWRYDFMTMNSTLAIGTAAGLGLLSFGRQRIGWIRRHPIGSVMASFVACLTTTVIARQGIKALGIGIVQAQNSHKRALNCLHCVDCLEDVNTYTLKQIEELKAQQIPQQAGMPPPPEEYVRRFKKGVEMQCRLLETDMEEVRLIRKWAGASLCDVHQHLRDDPMGYKEPHGLVLLASDRARAAERPPLATMPDDKKGIRPAKS	not soluble
MLPINRQQHILKWLKEEGSLRISDISARFGVSEMTVYRDVNQLVQSNQVIKTAGGITLPVRTPQTDHMCSYCLKPVNQAHSVQLITVNQDIEQLCCAHCAFLRYADKTEEVSHLICRDFLLQTTVSAGSAYFVVNAELNLHCCQPQAIPFATLDHAERFQKGFGGAVCTFDQALEDMLQDRKKRCTCTKK	soluble
MKTIRTEEAVGLPLSHDITRIDYGKTKEVCFKKGHIVVQEDIPILLSLGKKHLFVSLDPAEIHEEEAATFLYNLLTDDSCQPSEVHEGKIVAKASTRGLLKVNREKLIALNEIEGLALSTKVTNIEVQKDEKVAAFRVIPLTISKSQLEKARQLSTSEPLISVKPFKKIRVGIVTTGSEVYTGLVEDAFYPVLKAKFSAYPLVTIVKQEIVDDQPQKITVAIKKMLAQGVDLIVCTGGMSVDPDDLTPLAIKQTGAEIVTHGTPVLPGSMFLLAYKGEQTIIGLPGGVLFSEKTVFDLLLPRLMAKEVIKKSEIIDLSYGGYL	not soluble
MGSDKIHHHHHHMKAISANLQRLLAESGMKQSHLATILNIPTSSLNEYVKGKSLPKIGNIQKIADYFGLQKSDIDPRFASKKDSSTLDKINHIAKQLEMKRQIKVLDFCYQQSKEQDETASLSASDETTEDKVADKSNHTQYQKVVDSFIAKELNDQTIIHWDNVIKAKDLYQTFGRQYENIQIYGEVSAGTGIWVGHEKQETIKYPIPIPEHDIALIVNGNSMEPLFYNGDVIFVKKTKAIHHGQIIVVIVNNEAYVKKLYRKNKEIRLISLNPDYDDIILKEDDTIEVIGTVIT	not soluble
MSRRKAGSAPRRVEPAPAANPDDEMEMQDLVIELKPEPDAQPQQAPRLGPFSPKEVSSAGRFGGEPHHSPGPMPAGAALLALGPRNPWTLWTPLTPNYPDRQPWTDKHPDLLTCGRCLQTFPLEAITAFMDHKKLGCQLFRGPSRGQGSEREELKALSCLRCGKQFTVAWKLLRHAQWDHGLSIYQTESEAPEAPLLGLAEVAAAVSAVVGPAAEAKSPRASGSGLTRRSPTCPVCKKTLSSFSNLKVHMRSHTGERPYACDQCPYACAQSSKLNRHKKTHRQVPPQSPLMADTSQEQASAAPPEPAVHAAAPTSTLPCSGGEGAGAAATAGVQEPGAPGSGAQAGPGGDTWGAITTEQRTDPANSQKASPKKMPKSGGKSRGPGGSCEFCGKHFTNSSNLTVHRRSHTGERPYTCEFCNYACAQSSKLNRHRRMHGMTPGSTRFECPHCHVPFGLRATLDKHLRQKHPEAAGEA	not soluble
MAHHHHHHMAATKLGINGFGRIGRLVFRAAFGRKDIEVVAINDPFMDLNHLCYLLKYDSVHGQFPCEVTHADGFLLIGEKKVSVFAEKDPSQIPWGKCQVDVVCESTGVFLTKELASSHLKGGAKKVIMSAPPKDDTPIYVMGINHHQYDTKQLIVSNASCTTNCLAPLAKVINDRFGIVEGLMTTVHASTANQLVVDGPSKGGKDWRAGRCALSNIIPASTGAAKAVGKVLPELNGKLTGVAFRVPIGTVSVVDLVCRLQKPAKYEEVALEIKKAAEGPLKGILGYTEDEVVSQDFVHDNRSSIFDMKAGLALNDNFFKLVSWYDNEWGYSNRVLDLAVHITTS	soluble
MSLRQDILLNNNWNFRFSHQVQGDTRRVDLPHTWNAQDALAGKIDYKRGIGNYEKALYIRPEWKGKRLFLRFDGVNSIADVFINRKHIGEHRGGYGAFIFEITDLVKYGEKNSVLVRANNGEQLDIMPLVGDFNFYGGIYRDVHLLITDETCISPLDYASPGVYLVQEVVSPQEAKVCAKVNLSNRAADGTAELQVLVTDGTKVICKESRNVSLKQGADILEQLPLLIQKPRLWNGCEDPFMYQVSISLHKDGKQIDSVTQPLGLRYYHTDPDKGFFLNGKHLPLHGVCRHQDRAEVGNALRPQHHEEDVALMREMGVNAIRLAHYPQATYMYDLMDKHGIVTWAEIPFVGPGGYADKGFVDQASFRENGKQQLIELIRQHYNHPSICFWGLFNELKEVGDNPVEYVKELNALAKQEDPTRPTTSASNQDGNLNFITENIAWNRYDGWYGSTPKTLATFLDRTHKKHPELRIGISEYGAGASIYHQQDSLKQPSASGWWHPENWQTYYHMENWKIIAERPFVWGTFVWNMFDFGAAHRTEGDRPGINDKGLVTFDRKVRKDAFYFYKANWNKQEPMIYLAEKRCRLRYQPEQTFMAFTTAPEAELFVNGVSCGKQKADTYSTVVWKNVKLTSGENIIRVTTPGKKPLTDEVTVEYKEDREGHHHHHH	soluble
HYNLKASNDAKIMKTLKEARQYEQSAKPTHIQQYFKHLGQMNYQIMTVDQKGHKTFYGEPFREDTLSQNAINNVLNNKDYHGIKDKPFALFVTGFFDNVTDNTVGINFKTKDGSIAVFMRPDIGETFSEFRT	not soluble
MSLNLLFTGASGFLGYNVLPLLKKKYSVETIGLTSQDDYIVNLAAEIPKLAGKYDVILHVAGKAHSLPKTEAEKRLFFDVNLQGTKNLCTALEQSGIPKSFIFISTVAVYGCDSGENITEEYPLNGTTPYALSKIKAEKYLEEWCAMHNVKLSILRPSLIAGPNPPGNLGAMIHGIKSGKYLSIAGGKAQKSVLMVQDIANLVPLLIEKGGIYNVCDSYQPSFRELEMVICKQLNKKLPLSIPYWFAKSMAVFGDCFGEKAPINSLKLRKITHSLTFSNEKAMRELGWKPMNVLKNFREGHHHHHH	soluble
MSDVAETLDPLRLPLQGERLIEASAGTGKTFTIAALYLRLLLGLGGSAAFPRPLTVEELLVVTFTEAATAELRGRIRSNIHELRIACLRETTDNPLYERLLEEIDDKAQAAQWLLLAERQMDEAAVFTIHGFCQRMLNLNAFESGMLFEQQLIEDESLLRYQACADFWRRHCYPLPREIAQVVFETWKGPQALLRDINRYLQGEAPVIKAPPPDDETLASRHAQIVARIDTVKQQWRDAVGELDALIESSGIDRRKFNRSNQAKWIDKISAWAEEETNSYQLPESLEKFSQRFLEDRTKAGGETPRHPLFEAIDQLLAEPLSIRDLVITRALAEIRETVAREKRRRGELGFDDMLSRLDSALRSESGEVLAAAIRTRFPVAMIDEFQDTDPQQYRIFRRIWHHQPETALLLIGDPKQAIYAFRGADIFTYMKARSEVHAHYTLDTNWRSAPGMVNSVNKLFSQTDDAFMFREIPFIPVKSAGKNQALRFVFKGETQPAMKMWLMEGESCGVGDYQSTMAQVCAAQIRDWLQAGQRGEALLMNGDDARPVRASDISVLVRSRQEAAQVRDALTLLEIPSVYLSNRDSVFETLEAQEMLWLLQAVMTPERENTLRSALATSMMGLNALDIETLNNDEHAWDVVVEEFDGYRQIWRKRGVMPMLRALMSARNIAENLLATAGGERRLTDILHISELLQEAGTQLESEHALVRWLSQHILEPDSNASSQQMRLESDKHLVQIVTIHKSKGLEYPLVWLPFITNFRVQEQAFYHDRHSFEAVLDLNAAPESVDLAEAERLAEDLRLLYVALTRSVWHCSLGVAPLVRRRGDKKGDTDVHQSALGRLLQKGEPQDAAGLRTCIEALCDDDIAWQTAQTGDNQPWQVNDVSTAELNAKTLQRLPGDNWRVTSYSGLQQRGHGIAQDLMPRLDVDAAGVASVVEEPTLTPHQFPRGASPGTFLHSLFEDLDFTQPVDPNWVREKLELGGFESQWEPVLTEWITAVLQAPLNETGVSLSQLSARNKQVEMEFYLPISEPLIASQLDTLIRQFDPLSAGCPPLEFMQVRGMLKGFIDLVFRHEGRYYLLDYKSNWLGEDSSAYTQQAMAAAMQAHRYDLQYQLYTLALHRYLRHRIADYDYEHHFGGVIYLFLRGVDKEHPQQGIYTTRPNAGLIALMDEMFAGMTLEEA	soluble
CVTGDTLVFTDKGLIEARKLEVGMKVWSGDGWNEIKEVINNGVKPVLKLKLKTGLEIKVTEEHKIFTGEGWKEAKDLKVGDKLYLPVSYPELDFPVKEENDFYEFLGYFLGDGSLSVSNHVSLHVGNDKELALYFKEKVEKYAGAAYLIERDGQYIIDVHRKEFAEKIKKIFGIEITDSKEKDIPSSLLAVNSEAMKALLRGLFSADGSVYDANGSITVALSSTSYPLLRKVQILLLSLGIPSTLTGEKDQDVKIIKGNEYETLPTYRLIISGERASLFFNKIGLIGEKKKKFLELMAGKTTYSTLNNHLYQEIVSIEPAGEEEVFDITAPPKYTWITNGILSLD	soluble
MSELHFMSLEELDNELEKDDSGIYFIKDYNDNIIYIGKAFSIKSRVLAHFNSYSNIKEYVHLFNKVAYLIEDSLLKRSLLQVTYMIKYKPVLNKEVQKEFPELYTQYIKQTNKKSMLLEIEEAKEKRDELKNRLVKLVGGKTMFYDIISLLNNGYNYHVLAKVLSIELQTLIIMKEHRNKFPMPHNYKRTIKHQDIMYALSGKKNLSTSRLNT	soluble
